Legend:
[1] = biological target: T1, human sodium-dependent phosphate transporter 2B (NaPi2b) (human, UniProt O95436 1-690); experiment: cell-based or functional assay
T1 sequence: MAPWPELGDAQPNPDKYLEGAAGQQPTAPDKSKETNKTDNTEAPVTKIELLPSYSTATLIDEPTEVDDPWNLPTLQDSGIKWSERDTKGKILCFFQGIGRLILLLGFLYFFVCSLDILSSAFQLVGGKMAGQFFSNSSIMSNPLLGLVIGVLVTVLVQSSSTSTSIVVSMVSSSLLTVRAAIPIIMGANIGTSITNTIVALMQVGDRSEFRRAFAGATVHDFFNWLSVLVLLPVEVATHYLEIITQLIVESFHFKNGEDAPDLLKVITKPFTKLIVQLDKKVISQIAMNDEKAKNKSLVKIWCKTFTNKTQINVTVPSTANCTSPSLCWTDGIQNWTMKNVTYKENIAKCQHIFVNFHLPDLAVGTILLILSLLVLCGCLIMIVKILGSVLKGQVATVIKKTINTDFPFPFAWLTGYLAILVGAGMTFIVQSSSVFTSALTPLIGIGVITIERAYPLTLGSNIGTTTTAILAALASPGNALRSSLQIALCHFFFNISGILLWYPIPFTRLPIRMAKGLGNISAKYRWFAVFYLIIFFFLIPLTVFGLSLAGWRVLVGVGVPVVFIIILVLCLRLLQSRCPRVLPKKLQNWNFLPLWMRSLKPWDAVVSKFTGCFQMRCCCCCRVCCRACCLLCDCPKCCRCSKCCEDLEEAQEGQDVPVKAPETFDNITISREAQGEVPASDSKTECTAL

[2] = biological target: T1, human sodium-dependent phosphate …; experiment: flow cytometry, IGROV-1 cells (endogenous NaPi2b), 24 h at 4 °C
Experimental: (§1) IGROV-1 cells express endogenous NaPi2b at a high level.
(§2) Briefly, cells were seeded at 50,000 cells/well in conical-bottom 96-well plates and treated with test antibody for 24 hours at 4° C. to prevent internalization. […] Following incubation, cells were washed and stained with anti-Human IgG Fc AF647 conjugate (Jackson Immuno Research Labs, West Grove, PA; Cat. No. 109-605-098) at 4° C. for 30 min. Following incubation and washing, fluorescence was detected by flow cytometry on a BD LSRFortessa™ Cell Analyzer (BD Biosciences, Franklin Lake, NJ) with 1,000 minimum events collected per well. The AF647/APC-A GeoMean (fluorescence signal geometric mean, proportional to anti-Human AF647 binding) was calculated for the live cell population using FlowJo™ Version 10.8.1 (BD Biosciences, Franklin Lake, NJ) and plotted for each test antibody using GraphPad Prism Version 9 (GraphPad Software, San Diego, CA).

[3] = biological target: T1, human sodium-dependent phosphate …; experiment: flow cytometry, IGROV-1 cells (endogenous NaPi2b), 24 h at 4 °C; apparent Kd
Experimental: as §1, §2

B1: v18993-DL2, lifastuzumab conjugated to MT-VC-Compound 1 (DAR 4) (antibody, human IgG1, kappa)
heavy 1: GEVQLVESGGGLVQPGGSLRLSCAASGFSFSDFAMSWVRQAPGKGLEWVATIGRVAFHTYYPDSMKGRFTISRDNSKNTLYLQMNSLRAEDTAVYYCARHRGFDVGHFDFWGQGTLVTVSSASTKGPSVFPLAPSSKSTSGGTAALGCLVKDYFPEPVTVSWNSGALTSGVHTFPAVLQSSGLYSLSSVVTVPSSSLGTQTYICNVNHKPSNTKVDKKVEPKSCDKTHTCPPCPAPELLGGPSVFLFPPKPKDTLMISRTPEVTCVVVDVSHEDPEVKFNWYVDGVEVHNAKTKPREEQYNSTYRVVSVLTVLHQDWLNGKEYKCKVSNKALPAPIEKTISKAKGQPREPQVYVYPPSRDELTKNQVSLTCLVKGFYPSDIAVEWESNGQPENNYKTTPPVLDSDGSFALVSKLTVDKSRWQQGNVFSCSVMHEALHNHYTQKSLSLSPG
heavy 2: not shown
light: GDIQMTQSPSSLSASVGDRVTITCRSSETLVHSSGNTYLEWYQQKPGKAPKLLIYRVSNRFSGVPSRFSGSGSGTDFTLTISSLQPEDFATYYCFQGSFNPLTFGQGTKVEIKRTVAAPSVFIFPPSDEQLKSGTASVVCLLNNFYPREAKVQWKVDNALQSGNSQESVTEQDSKDSTYSLSSTLTLSKADYEKHKVYACEVTHQGLSSPVTKSFNRGEC
modifications: MT-VC-Compound 1 (DL2) on cysteines freed by reduction; positions not given; MT-VC-Compound 1 (DL2) on cysteines freed by reduction; positions not given; DAR 4 for the whole antibody
notes: also called Lifa Compound 1 ADC; lifastuzumab-DL2 ADC
**Q.** With B1 as the binder, how does the “In vitro cytotoxicity EC50 (nM), HCC-78” value [1] read?
**A.** 1.77 nM

**Q.** What about the “In vitro cytotoxicity EC50 (nM), IGROV-1” value [1] of the same binder?
**A.** 2.12 nM

**Q.** What about the “In vitro cytotoxicity EC50 (nM), OVCAR-3” value [1] of the same binder?
**A.** 0.49 nM

**Q.** And the “Bmax (MFI)” value [2]?
**A.** 39800 MFI

**Q.** And the Kd [3]?
**A.** 3 nM

From patent publication US20250277030A1 (Zymeworks, published 2025)
